Assay results from article doi:10.1101/2022.12.30.522300 (bioRxiv, 2022).
Blank lines part the entries; values can stand above or below the molecule they belong to.

What was measured:
[1] = molecular target: RBM17–UHM (RBM17/ΔNΔG), from pETM11 (human); experiment: ITC
[2] = molecular target: T1, full-length RBM17, from pETM11 (human, UniProt Q96I25 1-401); experiment: NMR titration
T1 sequence (looked up): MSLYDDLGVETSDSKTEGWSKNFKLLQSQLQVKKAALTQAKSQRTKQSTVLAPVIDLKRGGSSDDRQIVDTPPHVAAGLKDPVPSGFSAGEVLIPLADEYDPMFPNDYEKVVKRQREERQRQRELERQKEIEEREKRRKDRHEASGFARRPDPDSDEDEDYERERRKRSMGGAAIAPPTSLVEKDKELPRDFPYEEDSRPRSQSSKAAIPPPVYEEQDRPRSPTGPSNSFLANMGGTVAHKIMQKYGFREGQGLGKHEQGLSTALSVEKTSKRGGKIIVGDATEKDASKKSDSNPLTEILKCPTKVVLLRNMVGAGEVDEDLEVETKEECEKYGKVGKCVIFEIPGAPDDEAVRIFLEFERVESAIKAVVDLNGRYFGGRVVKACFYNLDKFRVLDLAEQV

GST-RBM17 = molecular target: T2, GST-RBM17 (human, UniProt Q96I25 1-401); experiment: pull-down
T2 sequence (looked up): T1 sequence (looked up)

Kd [1]: 34.4 µM
Molecule: SAP30BP/ULM (domain or fragment)

binding result [2]: binds
B1: full-length SAP30BP, from pETM11 (natural protein, human, UniProt Q9UHR5 1-308, looked up)
chain: MAGKKNVLSSLAVYAEDSEPESDGEAGIEAVGSAAEEKGGLVSDAYGEDDFSRLGGDEDGYEEEEDENSRQSEDDDSETEKPEADDPKDNTEAEKRDPQELVASFSERVRNMSPDEIKIPPEPPGRCSNHLQDKIQKLYERKIKEGMDMNYIIQRKKEFRNPSIYEKLIQFCAIDELGTNYPKDMFDPHGWSEDSYYEALAKAQKIEMDKLEKAKKERTKIEFVTGTKKGTTTNATSTTTTTASTAVADAQKRKSKWDSAIPVTTIAQPTILTTTATLPAVVTVTTSASGSKTTVISAVGTIVKKAKQ

binding result (GST-RBM17): binds
B2: recombinant SAP30BP (GST tag removed) (natural protein, human, UniProt Q9UHR5 1-308, looked up)
chain: B1 chain
